In patent US20240058465A1 (SUTRO BIOPHARMA, published 2024):
Read-outs that look alike come from different tables or passages of the source.

Legend:
human ROR1 (hROR1) [1] = target: T1, human ROR1 (hROR1) (human, UniProt Q01973 30-937); assay: cell-based or functional assay
[2] = target: T2, human ROR1 Frizzled domain (hROR1-Fz) (human, UniProt Q01973 165-305); assay: SPR Biacore, IgG on anti-Fc, ROR1-Fz analyte
T2 construct: Acro Biosystems, made in HEK293
Summary of the method: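 Test antibodies captured on an anti-Fc surface (CM5 chip), then analyte bound for 180 s with 600 s dissociation at 25° C in HBS-EP+ buffer at 50 μL/min. Human ROR1 ECD, Frizzled or Kringle domain used as analyte; regeneration with 10 mM glycine pH 2.0.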

[3] = target: T3, human ROR1 frizzled domain (hROR1-Fz) (human, UniProt Q01973 165-305); assay: SPR kinetic screen (Biacore), antibody captured as ligand (Fc=3-1), sample ROR1 Fz, 25 C, 1:1 binding model; fit to a low response of at most about 2 on the response axis; Table 7 lists this pair as 'Not detected'
T3 construct: From Acro Biosystems

[4] = target: ROR1 (recombinant protein coated on the ELISA plate, Example 11) (UniProt Q01973 30-403, limits assumed); assay: ELISA: ROR1 coated on the plate, antibody titrated 3-fold from 5 ug/mL, HRP anti-human Fc, chemiluminescence (ELISA RLU)
Excerpt: The anti-ROR1 lead antibodies were discovered from a Fab ribosome display library that contained CDR H1, H2, and H3 diversity and utilized a constant LC (trastuzumab LC). In this example, the HCs of the lead antibodies were co-expressed with trastuzumab LC or different LCs derived from anti-CD3 antibodies: hOKT3-LC1, hSP34-LC3, hUCHT1-LC3 to determine if the anti-ROR1 HC leads would retain binding to ROR1 when assembled with anti-CD3 LCs. […] The antibodies were then purified and tested for ROR1 binding by ELISA. The ELISA assay was carried out as follows. Briefly, 2 μg/mL of ROR1 was coated to a 384-well polystyrene plate for 1 hr at 30° C. in 0.1 M bicarbonate pH8.9 buffer before it was washed and blocked with 2% BSA in PBST (PBS, 0.1% Tween20) for 1 hr. Antibody variants were diluted to 5 μg/mL and further serially diluted 3-fold before 30 μL was applied to the ELISA plates for binding ([…] Antibody binding was detected via HRP-conjugated anti-human Fc antibodies (Jackson Immunoresearch) and detection with SuperSignal ELISA Pico Chemiluminescent Substrate (Pierce).

human ROR1 (hROR1) [5] = target: T1, human ROR1 (hROR1); assay: flow cytometry, HCT116-hROR1 cells
[6] = target: T4, human ROR1 extracellular domain (human, UniProt Q01973 30-406); assay: SPR (Biacore T200), IgG captured by anti-human Fc, ROR1 ECD as analyte, 1:1 Langmuir fit
T4 construct: Bought recombinant protein (Acro Biosystems); also called ROR1 ECD; hROR1
Experimental: The data was fit with the Biacore™ T200 Evaluation software, using a 1-1 Langmuir binding model. KD (affinity, nM) was determined as a ratio of the kinetic rate constants calculated from the fits of the association and dissociation phases.

[7] = target: T5, human ROR1 Immunoglobulin domain (Ig, residues 39-151) with C-terminal HIS6 tag (human, UniProt Q01973 39-151); assay: SPR kinetic screen (Biacore), antibody captured as ligand (Fc=2-1), sample printed as ROR1 Ig, 25 C, 1:1 binding model
T5 construct: Made in HEK293 cells and purified (Acro Biosystems)

[8] = target: T5, human ROR1 Immunoglobulin domain (Ig, …); assay: as above; remark: listed apart in the source
[9] = target: T5, human ROR1 Immunoglobulin domain (Ig, …); assay: SPR kinetic screen (Biacore), antibody captured as ligand (Fc=4-1), sample printed as ROR1 Ig, 25 C, 1:1 binding model; fit to a flat sensorgram
[10] = target: T6, receptor tyrosine kinase orphan receptor 1 (ROR1) on Ntera-2 cells (human, UniProt Q01973 30-937); assay: cell-based or functional assay
[11] = target: T6, receptor tyrosine kinase orphan …; assay: cell-based or functional assay; remark: listed apart in the source
[12] = target: T6, receptor tyrosine kinase orphan …; assay: cell-based or functional assay; remark: listed apart in the source

B1: SRP1944-A07 (with trastuzumab LC) (antibody, IgG1, V domains shown)
VH: EVQLVESGGGLVQPGGSLRLSCAASGFNITGYYIHWVRQAPGKGLEWVGYISPNSGSTYYADSVKGRFTISADTSKNTAYLQMNSLRAEDTAVYYCARDSRRYVRPFDYWGQGTLVTVSS
VL: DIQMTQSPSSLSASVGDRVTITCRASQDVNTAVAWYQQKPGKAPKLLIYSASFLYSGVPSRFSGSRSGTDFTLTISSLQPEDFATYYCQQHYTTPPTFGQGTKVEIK
notes: Parent of SRP2194; His/FLAG-tagged IgG1, cell-free; also called Antibody 126
With B1 the “Mino Nb-PBD, drug-conjugated 2° antibody Cell Killing EC50” value (human ROR1 (hROR1) [1]) was 0.01 nM, the Kd [2] was 24.5 nM and the koff [2] was 0.01 s⁻¹. It also gave a kon [2] of 559000 M⁻¹ s⁻¹.

B2: 1944-A07 HC co-expressed with hOKT3-LC1 light chain (antibody, V domains shown)
VH: EVQLVESGGGLVQPGGSLRLSCAASGFNITGYYIHWVRQAPGKGLEWVGYISPNSGSTYYADSVKGRFTISADTSKNTAYLQMNSLRAEDTAVYYCARDSRRYVRPFDYWGQGTLVTVSS
VL: DIQMTQSPSSLSASVGDRVTITCSASSSVSYMNWYQQKPGKAPKRLIYDTSKLASGVPSRFSGSGSGTEYTLTISSLQPEDFATYYCQQWSSNPFTFGQGTKLEIK
notes: Only variable domains are tied to this pairing
With B2 the Kd [3] was 17.9 nM, the koff [3] was 0.0137 s⁻¹ and the kon [3] was 763000 M⁻¹ s⁻¹. For the same binder, the “EC50 (read off the curve)” value [4] was roughly 0.05 µg/mL.

B3: SRP2194-A05 (antibody, IgG1, V domains shown)
VH: EVQLVESGGGLVQPGGSLRLSCAASGFNIKEYHIHWVRQAPGKGLEWVGYISPNSGSTYYADSVKGRFTISADTSKNTAYLQMNSLRAEDTAVYYCARDHRRYVRPFDYWGQGTLVTVSS
VL: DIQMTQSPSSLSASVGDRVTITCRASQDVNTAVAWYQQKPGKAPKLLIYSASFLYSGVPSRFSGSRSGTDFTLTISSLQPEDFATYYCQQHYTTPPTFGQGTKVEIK
notes: His/FLAG-tagged IgG1, cell-free
With B3 the “Bmax (MFI)” value (human ROR1 (hROR1) [5]) was 8810 MFI, the Kd (human ROR1 (hROR1) [5]) was 0.31 nM and the “Mino Nb-PBD, drug-conjugated 2° antibody Cell Killing EC50” value (human ROR1 (hROR1) [1]) was 0.002 nM. The Kd [2] was 1.54 nM, the koff [2] was 0.000317 s⁻¹ and the kon [2] was 206000 M⁻¹ s⁻¹.

B4: 1987-C05 HC with Trastuzumab LC (antibody, V domains shown)
VH: EVQLVESGGGLVQPGGSLRLSCAASGFNISDYDIHWVRQAPGKGLEWVGGIDPDDGSTDYADSVKGRFTISADTSKNTAYLQMNSLRAEDTAVYYCARDYGVFDYWGQGTLVTVSS
VL: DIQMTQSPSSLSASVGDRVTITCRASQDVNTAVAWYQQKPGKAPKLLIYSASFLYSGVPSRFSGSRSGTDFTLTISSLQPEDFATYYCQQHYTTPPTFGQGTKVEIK
notes: also called 1987-C05 HC w/trstmb LC (parent IgG); SRP1987-C05
In the case of B4, the “EC50 (read off the curve)” value [4] is reported as roughly 0.04 µg/mL, the Kd [6] is reported as 0.277 nM and the koff [6] is reported as 0.000673 s⁻¹. For the same binder, the kon [6] was 2.43e+06 M⁻¹ s⁻¹, the Kd [7] was 0.00859 nM and the koff [7] was 0.000705 s⁻¹. The kon [7] was 8.2e+07 M⁻¹ s⁻¹.

B5: 1987-C05 HC co-expressed with hUCHT1-LC3 light chain (antibody, V domains shown)
VH: EVQLVESGGGLVQPGGSLRLSCAASGFNISDYDIHWVRQAPGKGLEWVGGIDPDDGSTDYADSVKGRFTISADTSKNTAYLQMNSLRAEDTAVYYCARDYGVFDYWGQGTLVTVSS
VL: DIQMTQSPSTLSASVGDRVTITCRASQDIRNYLNWYQQKPGKAPKLLIYYTSRLHSGVPSRFSGSGSGTEYTLTISSLQPDDFATYYCQQGNTLPWTFGGGTKVEIK
notes: Only variable domains are tied to this pairing; also called 1987-C05 w/hUCHT1 LC3; 1987-C05 variant
B5 was tested, and the “EC50 (read off the curve)” value [4] was roughly 0.03 µg/mL, the Kd [8] was 2.6 nM and the koff [8] was 0.133 s⁻¹. The kon [8] was 5.11e+07 M⁻¹ s⁻¹.

B6: 1987-C05 HC co-expressed with hSP34-LC3 light chain (antibody, V domains shown)
VH: EVQLVESGGGLVQPGGSLRLSCAASGFNISDYDIHWVRQAPGKGLEWVGGIDPDDGSTDYADSVKGRFTISADTSKNTAYLQMNSLRAEDTAVYYCARDYGVFDYWGQGTLVTVSS
VL: QTVVTQEPSLTVSPGGTVTLTCGSSTGAVTSGYYPNWFQQKPGQAPRGLIGGTKFLAPGTPARFSGSLLGGKAALTLSGVQPEDEAEYYCALWYSNRWVFGGGTQLTVTG
notes: Only variable domains are tied to this pairing; also called 1987-C05 w/hSP34 LC3; 1987-C05 variant
B6 showed a Kd [9] of 34.1 nM, a koff [9] of 0.00133 s⁻¹ and a kon [9] of 38900 M⁻¹ s⁻¹.

B7: Conjugate 46 (D04-Y180/F241/F404/K42-LP3) (antibody, human IgG1, kappa)
heavy: MEVQLVESGGGLVQPGGSLRLSCAASGFNISDYDIHWVRQAPGKGLEWVGGIDPADGSTDYADSVKGRFTISADTSKNTAYLQMNSLRAEDTAVYYCARDYGVYDYWGQGTLVTVSSASTKGPSVFPLAPSSKSTSGGTAALGCLVKDYFPEPVTVSWNSGALTSGVHTFPAVLQSSGLSLSSVVTVPSSSLGTQTYICNVNHKPSNTKVDKKVEPKSCDKTHTCPPCPAPELLGGPSVLFPPKPKDTLMISRTPEVTCVVVDVSHEDPEVKFNWYVDGVEVHNAKTKPREEQYNSTYRVVSVLTVLHQDWLNGKEYKCKVSNKALPAPIEKTISKAKGQPREPQVYTLPPSREEMTKNQVSLTCLVKGFYPSDIAVEWESNGQPENNYKTTPPVLDSDGSFLYSKLTVDKSRWQQGNVFSCSVMHEALHNHYTQKSLSLSPGK
light: MDIQMTQSPSSLSASVGDRVTITCRASQDVNTAVAWYQQKPGAPKLLIYSASFLYSGVPSRFSGSRSGTDFTLTISSLQPEDFATYYCQQHYTTPPTFGQGTKVEIKRTVAAPSVFIFPPSDEQLKSGTASVVCLLNNFYPREAKVQWKVDNALQSGNSQESVTEQDSKDSTYSLSSTLTLSKADYEKHKVYACEVTHQGLSSPVTKSFNRGEC
modifications: pAMF at K42, linked to LP3; pAMF at Y180, F241 and F404 (EU), each linked to LP3
In the case of B7, the “cell killing EC50, NTERA-2 cells” value [10] is reported as 0.042 nM, the “cell killing Span, NTERA-2 cells” value [10] is reported as 51% and the “cell killing EC50, NTERA-2 cells” value [11] is reported as 0.045 nM. For the same binder, the “Cell Killing on Ntera2 Cells, EC50, With 1 uM 2188-D04” value [12] was less than 10 nM and the “Cell Killing on Ntera2 Cells, EC50, Without 2188-D04” value [12] was 0.038 nM.

B8: Conjugate 47 (D04-Y180/F241/F404/K42-LP4) (antibody, human IgG1, kappa)
heavy: MEVQLVESGGGLVQPGGSLRLSCAASGFNISDYDIHWVRQAPGKGLEWVGGIDPADGSTDYADSVKGRFTISADTSKNTAYLQMNSLRAEDTAVYYCARDYGVYDYWGQGTLVTVSSASTKGPSVFPLAPSSKSTSGGTAALGCLVKDYFPEPVTVSWNSGALTSGVHTFPAVLQSSGLSLSSVVTVPSSSLGTQTYICNVNHKPSNTKVDKKVEPKSCDKTHTCPPCPAPELLGGPSVLFPPKPKDTLMISRTPEVTCVVVDVSHEDPEVKFNWYVDGVEVHNAKTKPREEQYNSTYRVVSVLTVLHQDWLNGKEYKCKVSNKALPAPIEKTISKAKGQPREPQVYTLPPSREEMTKNQVSLTCLVKGFYPSDIAVEWESNGQPENNYKTTPPVLDSDGSFLYSKLTVDKSRWQQGNVFSCSVMHEALHNHYTQKSLSLSPGK
light: MDIQMTQSPSSLSASVGDRVTITCRASQDVNTAVAWYQQKPGAPKLLIYSASFLYSGVPSRFSGSRSGTDFTLTISSLQPEDFATYYCQQHYTTPPTFGQGTKVEIKRTVAAPSVFIFPPSDEQLKSGTASVVCLLNNFYPREAKVQWKVDNALQSGNSQESVTEQDSKDSTYSLSSTLTLSKADYEKHKVYACEVTHQGLSSPVTKSFNRGEC
modifications: pAMF at K42, linked to LP4; pAMF at Y180, F241 and F404 (EU), each linked to LP4
With B8 the “cell killing EC50, NTERA-2 cells” value [10] was 0.005 nM, the “cell killing Span, NTERA-2 cells” value [10] was 96% and the “cell killing EC50, NTERA-2 cells” value [11] was 0.007 nM. The “Cell Killing on Ntera2 Cells, EC50, With 1 uM 2188-D04” value [12] was less than 10 nM and the “Cell Killing on Ntera2 Cells, EC50, Without 2188-D04” value [12] was 0.008 nM.
